In the Human Domainome abundance scans (Beltran et al. 2025) one finds abundance fitness data, which are given here for 91 substances.

± gives the uncertainty stated by the source.

This data set is described as follows: abundance fitness (aPCA) (normalised: wild type 0, dead -1); higher = more abundant; growth selection in yeast, the domain comes from the species named. The note with it: Homo sapiens.
The substance “DnaJ homolog subfamily B member 1 K21P, P25685” had an abundance fitness of -0.822 ± 0.08.

In the case of “DnaJ homolog subfamily B member 1 K21Q, P25685”, the abundance fitness amounted to 0.122 ± 0.051.

Take “DnaJ homolog subfamily B member 1 K21R, P25685”: the abundance fitness is -0.126 ± 0.059.

In turn, “DnaJ homolog subfamily B member 1 K21S, P25685” returned an abundance fitness of -0.097 ± 0.051.

In turn, “DnaJ homolog subfamily B member 1 K21T, P25685” had an abundance fitness of -0.053 ± 0.064.

For “DnaJ homolog subfamily B member 1 K21V, P25685”, the abundance fitness was -0.078 ± 0.061.

“DnaJ homolog subfamily B member 1 K21W, P25685”: the abundance fitness was -0.152 ± 0.072.

On to “DnaJ homolog subfamily B member 1 K21Y, P25685”, for which the abundance fitness was -0.121 ± 0.088.

“DnaJ homolog subfamily B member 1 K35A, P25685” gave an abundance fitness of -0.359 ± 0.082.

On to “DnaJ homolog subfamily B member 1 K35C, P25685”, for which the abundance fitness is -0.46 ± 0.11.

“DnaJ homolog subfamily B member 1 K35D, P25685”: the abundance fitness was -0.193 ± 0.13.

“DnaJ homolog subfamily B member 1 K35E, P25685” showed an abundance fitness of -0.285 ± 0.088.

Substance “DnaJ homolog subfamily B member 1 K35F, P25685” came in with an abundance fitness of -0.614 ± 0.11.

As for “DnaJ homolog subfamily B member 1 K35G, P25685”, the abundance fitness is -0.25 ± 0.083.

In turn, “DnaJ homolog subfamily B member 1 K35H, P25685” returned an abundance fitness of -0.724 ± 0.12.

“DnaJ homolog subfamily B member 1 K35I, P25685” registered an abundance fitness of -0.504 ± 0.086.

Consider “DnaJ homolog subfamily B member 1 K35L, P25685”, for which the abundance fitness was -0.55 ± 0.071.

Take “DnaJ homolog subfamily B member 1 K35M, P25685”: the abundance fitness was -0.596 ± 0.1.

For “DnaJ homolog subfamily B member 1 K35N, P25685”, the abundance fitness is -0.742 ± 0.13.

As to “DnaJ homolog subfamily B member 1 K35P, P25685”, the abundance fitness was -0.365 ± 0.1.

Substance “DnaJ homolog subfamily B member 1 K35Q, P25685” registered an abundance fitness of -0.213 ± 0.092.

“DnaJ homolog subfamily B member 1 K35R, P25685”: the abundance fitness is 0.034 ± 0.092.

“DnaJ homolog subfamily B member 1 K35S, P25685” returned an abundance fitness of -0.438 ± 0.064.

With “DnaJ homolog subfamily B member 1 K35T, P25685”, the abundance fitness is -0.414 ± 0.095.

On to “DnaJ homolog subfamily B member 1 K35V, P25685”, for which the abundance fitness was -0.396 ± 0.1.

Take “DnaJ homolog subfamily B member 1 K35W, P25685”: the abundance fitness is -0.963 ± 0.095.

In turn, “DnaJ homolog subfamily B member 1 K35Y, P25685” registered an abundance fitness of -0.632 ± 0.13.

In turn, “DnaJ homolog subfamily B member 1 K37C, P25685” had an abundance fitness of -0.267 ± 0.14.

“DnaJ homolog subfamily B member 1 K37D, P25685” came in with an abundance fitness of -0.27 ± 0.2.

In turn, “DnaJ homolog subfamily B member 1 K37E, P25685” had an abundance fitness of 0.117 ± 0.22.

Substance “DnaJ homolog subfamily B member 1 K37F, P25685” returned an abundance fitness of -0.645 ± 0.17.

As for “DnaJ homolog subfamily B member 1 K37G, P25685”, the abundance fitness is -0.319 ± 0.11.

In turn, “DnaJ homolog subfamily B member 1 K37H, P25685” had an abundance fitness of 0.05 ± 0.13.

On to “DnaJ homolog subfamily B member 1 K37I, P25685”, for which the abundance fitness was -0.304 ± 0.12.

For the substance “DnaJ homolog subfamily B member 1 K37L, P25685”, the abundance fitness is -0.286 ± 0.061.

Regarding “DnaJ homolog subfamily B member 1 K37M, P25685”, the abundance fitness was -0.41 ± 0.18.

The substance “DnaJ homolog subfamily B member 1 K37P, P25685” gave an abundance fitness of -0.306 ± 0.14.

“DnaJ homolog subfamily B member 1 K37Q, P25685” displayed an abundance fitness of -0.2 ± 0.089.

On to “DnaJ homolog subfamily B member 1 K37R, P25685”, for which the abundance fitness is -0.115 ± 0.066.

In turn, “DnaJ homolog subfamily B member 1 K37S, P25685” returned an abundance fitness of -0.225 ± 0.065.

“DnaJ homolog subfamily B member 1 K37T, P25685”: the abundance fitness was -0.228 ± 0.11.

As to “DnaJ homolog subfamily B member 1 K37V, P25685”, the abundance fitness was -0.356 ± 0.083.

As to “DnaJ homolog subfamily B member 1 K37Y, P25685”, the abundance fitness is -0.277 ± 0.15.

“DnaJ homolog subfamily B member 1 K44A, P25685” yielded an abundance fitness of -0.138 ± 0.092.

The substance “DnaJ homolog subfamily B member 1 K44C, P25685” showed an abundance fitness of -0.208 ± 0.14.

Take “DnaJ homolog subfamily B member 1 K44D, P25685”: the abundance fitness is -0.356 ± 0.15.

As for “DnaJ homolog subfamily B member 1 K44E, P25685”, the abundance fitness was -0.322 ± 0.077.

Regarding “DnaJ homolog subfamily B member 1 K44F, P25685”, the abundance fitness was -0.298 ± 0.12.

“DnaJ homolog subfamily B member 1 K44G, P25685”: the abundance fitness was -0.39 ± 0.062.

The substance “DnaJ homolog subfamily B member 1 K44H, P25685” gave an abundance fitness of -0.182 ± 0.16.

Substance “DnaJ homolog subfamily B member 1 K44I, P25685” registered an abundance fitness of -0.279 ± 0.2.

With “DnaJ homolog subfamily B member 1 K44L, P25685”, the abundance fitness is -0.144 ± 0.051.

Regarding “DnaJ homolog subfamily B member 1 K44M, P25685”, the abundance fitness is -0.134 ± 0.068.

The substance “DnaJ homolog subfamily B member 1 K44N, P25685” gave an abundance fitness of -0.204 ± 0.13.

The substance “DnaJ homolog subfamily B member 1 K44P, P25685” came in with an abundance fitness of -0.717 ± 0.096.

“DnaJ homolog subfamily B member 1 K44Q, P25685”: the abundance fitness is -0.192 ± 0.16.

For the substance “DnaJ homolog subfamily B member 1 K44R, P25685”, the abundance fitness is -0.057 ± 0.084.

“DnaJ homolog subfamily B member 1 K44W, P25685” returned an abundance fitness of -0.315 ± 0.11.

Consider “DnaJ homolog subfamily B member 1 K44Y, P25685”, for which the abundance fitness is -0.268 ± 0.1.

Substance “DnaJ homolog subfamily B member 1 K46A, P25685” yielded an abundance fitness of -0.277 ± 0.35.

“DnaJ homolog subfamily B member 1 K46G, P25685” registered an abundance fitness of -0.016 ± 0.16.

In turn, “DnaJ homolog subfamily B member 1 K46I, P25685” displayed an abundance fitness of -0.116 ± 0.15.

Consider “DnaJ homolog subfamily B member 1 K46L, P25685”, for which the abundance fitness is -0.639 ± 0.43.

“DnaJ homolog subfamily B member 1 K46T, P25685” showed an abundance fitness of -0.451 ± 0.31.

As to “DnaJ homolog subfamily B member 1 K46W, P25685”, the abundance fitness is -0.175 ± 0.31.

As for “DnaJ homolog subfamily B member 1 K60A, P25685”, the abundance fitness was -0.172 ± 0.093.

In turn, “DnaJ homolog subfamily B member 1 K60C, P25685” gave an abundance fitness of -0.696 ± 0.21.

“DnaJ homolog subfamily B member 1 K60D, P25685” showed an abundance fitness of -0.442 ± 0.13.

The substance “DnaJ homolog subfamily B member 1 K60E, P25685” yielded an abundance fitness of -0.159 ± 0.14.

For the substance “DnaJ homolog subfamily B member 1 K60G, P25685”, the abundance fitness was -0.325 ± 0.073.

In turn, “DnaJ homolog subfamily B member 1 K60H, P25685” came in with an abundance fitness of -0.171 ± 0.082.

As for “DnaJ homolog subfamily B member 1 K60I, P25685”, the abundance fitness was -0.654 ± 0.16.

Consider “DnaJ homolog subfamily B member 1 K60L, P25685”, for which the abundance fitness was -0.426 ± 0.052.

With “DnaJ homolog subfamily B member 1 K60M, P25685”, the abundance fitness was -0.462 ± 0.11.

Consider “DnaJ homolog subfamily B member 1 K60N, P25685”, for which the abundance fitness is -0.311 ± 0.098.

As to “DnaJ homolog subfamily B member 1 K60P, P25685”, the abundance fitness is -0.352 ± 0.17.

As to “DnaJ homolog subfamily B member 1 K60Q, P25685”, the abundance fitness is -0.128 ± 0.085.

Substance “DnaJ homolog subfamily B member 1 K60S, P25685” displayed an abundance fitness of -0.216 ± 0.072.

In the case of “DnaJ homolog subfamily B member 1 K60T, P25685”, the abundance fitness was -0.298 ± 0.09.

The substance “DnaJ homolog subfamily B member 1 K60V, P25685” came in with an abundance fitness of -0.706 ± 0.11.

Substance “DnaJ homolog subfamily B member 1 K60Y, P25685” returned an abundance fitness of -0.575 ± 0.29.

As for “DnaJ homolog subfamily B member 1 L9A, P25685”, the abundance fitness was -0.892 ± 0.26.

“DnaJ homolog subfamily B member 1 L9C, P25685” registered an abundance fitness of -0.823 ± 0.11.

“DnaJ homolog subfamily B member 1 L9E, P25685”: the abundance fitness is -0.631 ± 0.13.

Take “DnaJ homolog subfamily B member 1 L9G, P25685”: the abundance fitness is -0.855 ± 0.074.

In the case of “DnaJ homolog subfamily B member 1 L9H, P25685”, the abundance fitness was -1.12 ± 0.12.

“DnaJ homolog subfamily B member 1 L9I, P25685” gave an abundance fitness of -0.546 ± 0.13.

In the case of “DnaJ homolog subfamily B member 1 L9K, P25685”, the abundance fitness is -1.26 ± 0.23.

On to “DnaJ homolog subfamily B member 1 L9M, P25685”, for which the abundance fitness is -0.412 ± 0.16.

In the case of “DnaJ homolog subfamily B member 1 L9N, P25685”, the abundance fitness is -0.664 ± 0.11.

Turning to “DnaJ homolog subfamily B member 1 L9P, P25685”, the abundance fitness was -0.726 ± 0.082.
